The values that follow come from the supplement of paper PMC11246515.

A short description of this data set: total protein half-life in vivo (active degradation + dilution); higher = more stable protein.
The mark [1] stands for this setting: E. coli NCM3722 delta-clpP delta-lon delta-hslV, growth: N-lim chemostat, doubling time 6 h.
[2] abbreviates: E. coli NCM3722 delta-smpB, growth: N-lim chemostat, doubling time 6 h.
[3] abbreviates: wild type E. coli NCM3722, growth: C-lim chemostat, doubling time 3 h.
[4] abbreviates: wild type E. coli NCM3722, growth: C-lim chemostat, doubling time 6 h.
Where [5] appears, read: wild type E. coli NCM3722, growth: C-lim chemostat, doubling time 12 h.
The mark [6] stands for this setting: E. coli NCM3722 delta-hslV, growth: N-lim chemostat, doubling time 6 h.
Where [7] appears, read: E. coli NCM3722 delta-lon, growth: N-lim chemostat, doubling time 6 h.
The mark [8] stands for this setting: wild type E. coli NCM3722, growth: N-lim chemostat, doubling time 12 h.
Where [9] appears, read: wild type E. coli NCM3722, growth: P-lim chemostat, doubling time 6 h.
The mark [10] stands for this setting: wild type E. coli NCM3722, growth: P-lim chemostat, doubling time 12 h.
[11] abbreviates: E. coli NCM3722 delta-clpP, growth: N-lim chemostat, doubling time 6 h.
Where [12] appears, read: wild type E. coli NCM3722, growth: N-lim chemostat, doubling time 6 h.

± gives the standard deviation of the averaged measurements.

As for “MILTPIRRYGAMILMLLTLVFSSEVLAKTHTTTASQKSHLTKASNKQVSSKQEYSRNSAKSSSLPDLRKYPSGTPRKKAFLRTVMPYITSQNAAITAERNWLISKQYQGQWSPAERARLKDIAKRYKVKWSGNTRKIPWNTLLERVDIIPTSMVATMAAAESGWGTSKLARNNNNLFGMKCMKGRCTNAPGKVKGYSQFSSVKESVSAYVTNLNTHPAYSSFRKSRAQLRKADQEVTATAMIHKLKGYSTKGKSYNNYLFAMYQDNQRLIAAHM”, the “total protein half-life in vivo” value under setting [1] is 0.848 h; the “total protein half-life in vivo” value under setting [2] amounted to 3.76 ± 0.26 h; the “total protein half-life in vivo” value under setting [3] was 1.22 h; the “total protein half-life in vivo” value under setting [4] worked out at 2.47 ± 0.18 h; the “total protein half-life in vivo” value under setting [5] stood at 5.88 ± 0.34 h.
In the case of “MQTQLTEEMRQNARALEADSILRACVHCGFCTATCPTYQLLGDELDGPRGRIYLIKQVLEGNEVTLKTQEHLDRCLTCRNCETTCPSGVRYHNLLDIGRDIVEQKVKRPLPERILREGLRQVVPRPAVFRALTQVGLVLRPFLPEQVRAKLPAETVKAKPRPPLRHKRRVLMLEGCAQPTLSPNTNAATARVLDRLGISVMPANEAGCCGAVDYHLNAQEKGLARARNNIDAWWPAIEAGAEAILQTASGCGAFVKEYGQMLKNDALYADKARQVSELAVDLVELLREEPLEKLAIRGDKKLAFHCPCTLQHAQKLNGEVEKVLLRLGFTLTDVPDSHLCCGSAGTYALTHPDLARQLRDNKMNALESGKPEMIVTANIGCQTHLASAGRTSVRHWIEIVEQALEKE”, the “total protein half-life in vivo” value under setting [6] came out at 1.54 h; the “total protein half-life in vivo” value under setting [7] worked out at 2.63 ± 0.16 h; the “total protein half-life in vivo” value under setting [2] was 1.29 ± 0.16 h; the “total protein half-life in vivo” value under setting [3] turned out to be 1.33 ± 0.28 h; the “total protein half-life in vivo” value under setting [4] stood at 2.42 ± 0.12 h; the “total protein half-life in vivo” value under setting [5] was determined as 4.17 ± 0.18 h. Further, the “total protein half-life in vivo” value reads like this: under setting [8], 2.2136 ± 0.00075 h; under setting [9], 2.14 h; under setting [10], 4.65 ± 0.33 h.
On to “MAKSLFRALVALSFLAPLWLNAAPRVITLSPANTELAFAAGITPVGVSSYSDYPPQAQKIEQVSTWQGMNLERIVALKPDLVIAWRGGNAERQVDQLASLGIKVMWVDATSIEQIANALRQLAPWSPQPDKAEQAAQSLLDQYAQLKAQYADKPKKRVFLQFGINPPFTSGKESIQNQVLEVCGGENIFKDSRVPWPQVSREQVLARSPQAIVITGGPDQIPKIKQYWGEQLKIPVIPLTSDWFERASPRIILAAQQLCNALSQVD”, for which the “total protein half-life in vivo” value by setting is: under setting [1], 3.92 ± 0.45 h; under setting [11], 5.19 ± 0.79 h; under setting [6], 6.42 ± 0.87 h; under setting [7], 5.93 ± 0.48 h; under setting [2], 5.67 ± 0.72 h; under setting [4], 6.08 ± 0.89 h. Moreover, the “total protein half-life in vivo” value under setting [5] is 4.41 ± 0.44 h, the “total protein half-life in vivo” value under setting [12] turned out to be 5.44 ± 0.56 h, the “total protein half-life in vivo” value under setting [8] was 12.1 ± 1.3 h and the “total protein half-life in vivo” value under setting [10] was determined as 12.3 ± 0.33 h.
Regarding “MNDRDFMRYSRQILLDDIALDGQQKLLDSQVLIIGLGGLGTPAALYLAGAGVGTLVLADDDDVHLSNLQRQILFTTEDIDRPKSQVSQQRLTQLNPDIQLTALQQRLTGEALKDAVARADVVLDCTDNMATRQEINAACVALNTPLITASAVGFGGQLMVLTPPWEQGCYRCLWPDNQEPERNCRTAGVVGPVVGVMGTLQALEAIKLLSGIETPAGELRLFDGKSSQWRSLALRRASGCPVCGGSNADPV”, the “total protein half-life in vivo” value runs as follows: under setting [1], 4.92 ± 0.58 h; under setting [11], 3.65 ± 0.013 h; under setting [6], 3.8 ± 0.15 h; under setting [7], 5.12 ± 0.89 h; under setting [2], 2.97 ± 0.83 h; under setting [3], 2.37 ± 0.41 h. Besides, the “total protein half-life in vivo” value worked out at 4.03 ± 0.18 h under setting [4]; 8.83 ± 2.4 h under setting [5]; 3.24 ± 0.079 h under setting [12]; 8.28 ± 6.9 h under setting [8]; 4.26 ± 0.46 h under setting [9]; 7.08 ± 0.84 h under setting [10].
As for “MPLLKLWAGSLVMLAAVSLPLQAASPVKVGSKIDTEGALLGNIILQVLESHGVPTVNKVQLGTTPVVRGAITSGELDIYPEYTGNGAFFFKDENDAAWKNAQQGYEKVKKLDSEHNKLIWLTPAPANNTWTIAVRQDVAEKNKLTSLADLSRYLQEGGTFKLAASAEFIERADALPAFEKAYGFKLGQDQLLSLAGGDTAVTIKAAAQQTSGVNAAMAYGTDGPVAALGLQTLSDPQGVQPIYAPAPVVRESVLREYPQMAQWLQPVFASLDAKTLQQLNASIAVEGLDAKKVAADYLKQKGWTK”, the “total protein half-life in vivo” value amounted to 4.32 ± 0.22 h under setting [1]; 5 ± 0.74 h under setting [11]; 6.28 ± 0.2 h under setting [6]; 7.16 ± 0.13 h under setting [7]; 5.47 ± 0.21 h under setting [2]; 3.08 ± 0.17 h under setting [3]. The “total protein half-life in vivo” value is 5.7 ± 0.057 h under setting [4]; 9.88 ± 1.8 h under setting [5]; 5.95 ± 0.34 h under setting [12]; 12 ± 0.96 h under setting [8]; 6.08 ± 0.75 h under setting [9]; 12 ± 0.14 h under setting [10].
As for “MKKNRAFLKWAGGKYPLLDDIKRHLPKGECLVEPFVGAGSVFLNTDFSRYILADINSDLISLYNIVKMRTDEYVQAARELFVPETNCAEVYYQFREEFNKSQDPFRRAVLFLYLNRYGYNGLCRYNLRGEFNVPFGRYKKPYFPEAELYHFAEKAQNAFFYCESYADSMARADDASVVYCDPPYAPLSATANFTAYHTNSFTLEQQAHLAEIAEGLVERHIPVLISNHDTMLTREWYQRAKLHVVKVRRSISSNGGTRKKVDELLALYKPGVVSPAKK [P0AEE8]”, the “total protein half-life in vivo” value reads like this: under setting [1], 5.89 ± 0.51 h; under setting [11], 4.15 ± 0.098 h; under setting [6], 5.84 ± 0.34 h; under setting [7], 4.29 ± 2.2 h; under setting [2], 4.51 ± 0.34 h; under setting [3], 2.94 ± 0.05 h. In addition, the “total protein half-life in vivo” value runs as follows: under setting [4], 5.65 ± 0.72 h; under setting [5], 10.2 ± 0.14 h; under setting [12], 4.65 ± 0.55 h; under setting [8], 10.1 ± 0.92 h; under setting [9], 5.39 ± 0.27 h; under setting [10], 10.9 ± 0.14 h.
Take “MQLTSFTDYGLRALIYMASLPEGRMTSISEVTDVYGVSRNHMVKIINQLSRAGYVTAVRGKNGGIRLGKPASAIRIGDVVRELEPLSLVNCSSEFCHITPACRLKQALSKAVQSFLTELDNYTLADLVEENQPLYKLLLVE [P0AF63]”: the “total protein half-life in vivo” value reads like this: under setting [1], 7.13 ± 1.1 h; under setting [11], 6.69 ± 0.15 h; under setting [6], 5.44 ± 0.07 h; under setting [7], 5.26 ± 0.19 h; under setting [2], 5.26 ± 0.17 h; under setting [3], 2.93 ± 0.15 h. In addition, the “total protein half-life in vivo” value was found to be 6.31 ± 1.1 h under setting [4]; 8.91 ± 0.3 h under setting [5]; 5.12 ± 0.58 h under setting [12]; 10.2 ± 0.44 h under setting [8]; 4.03 ± 0.2 h under setting [9]; 6.22 ± 0.65 h under setting [10].
